# Test results: paper PMC10902351
# Key:
# [1] = target: Toxoplasma gondii actin (TgAct1), untagged (Toxoplasma gondii) (UniProt P53476)
# [2] = target: Toxoplasma gondii actin (TgAct1), untagged (Toxoplasma gondii) (UniProt P53476); test: epifluorescence microscopy of single filament growth (in vitro actin growth assay); actin growth assay with inclusion of 0.1 mM AMPPNP, compared to MgATP conditions
substance,measurement,setting,value
"Toxoplasma gondii actin (TgAct1), untagged (from UniProt P53476 1-376) (natural protein)","phosphate (Pi) release after inducing polymerization of 12 µM TgAct1, MESG assay, 1-hour time course (phosphates per TgAct1 in 1 hour)",[1],3
same,fold change of the critical concentration with 0.1 mM AMPPNP against MgATP conditions,[2],2 fold
